# From patent US20250011363A1, “OPTIMIZED SHORTENED PEPTIDE THAT BINDS TO ACETYLCHOLINE RECEPTOR, AND USE THEREOF” (SKINMED CO., LTD., priority 2021, published 2025)
# Target: acetylcholine receptor
# Experiment: SPR, peptide at 10 uM, acetylcholine receptor immobilized on chip
row,Binding affinity (RU),Binder
1,13 RU,RFCFK [5mer-601]
2,30 RU,KCTNR [5mer-901]

# Target: acetylcholine receptor
# Experiment: SPR, peptide at 10 uM on acetylcholine receptor
row,Binding affinity (RU),Binder
1,33 RU,KNDKK [5mer-981]
2,32 RU,KYPDK [5mer-683]
3,12 RU,KFMHK [5mer-982]
4,24 RU,RNPER [5mer-669]
5,20 RU,RFSDK [5mer-689]
6,15 RU,RCEMR [5mer-677]
7,24 RU,KNNAR [5mer-694]
8,21 RU,RNDIK [5mer-685]
9,16 RU,RDCHR [5mer-667]
10,14 RU,RISPR [5mer-673]
11,17 RU,RPSKK [5mer-693]
12,15 RU,RNDKK [5mer-992]
13,16 RU,KNMIR [5mer-977]
14,14 RU,KYAKR [5mer-972]
15,24 RU,RAPNK [5mer-963]
16,11 RU,RIPHR [5mer-968]
17,30 RU,KMEIR [5mer-965]
18,12 RU,KMTGK [5mer-971]
19,17 RU,RDPKR [5mer-985]
20,23 RU,RTTGR [5mer-983]
21,12 RU,RPMDK [5mer-986]
22,23 RU,KPCVK [5mer-670]
23,21 RU,KMNAK [5mer-671]
24,17 RU,RCKWR [5mer-988]
25,30 RU,RCNMK [5mer-661]
26,28 RU,KIEEK [5mer-662]

row,Binding affinity (RU),Binder
1,22 RU,KETHR [5mer-674]
2,25 RU,KASKK [5mer-697]
3,23 RU,RIWKR [5mer-962]
4,32 RU,KIANR [5mer-961]
5,18 RU,RFAHK [5mer-975]
6,21 RU,KKTVK [5mer-679]
7,30 RU,RYPHR [5mer-997]
8,12 RU,RAEIK [5mer-690]
9,12 RU,KEEPK [5mer-990]
10,31 RU,KPNVK [5mer-682]
11,26 RU,KTWEK [5mer-665]
12,26 RU,RHMMR [5mer-974]
13,18 RU,KFTDK [5mer-995]
14,18 RU,RTMFR [5mer-676]
15,26 RU,KAWVR [5mer-994]
16,27 RU,RNTVR [5mer-969]
17,12 RU,KFDWK [5mer-698]
18,12 RU,KHAPK [5mer-672]
19,27 RU,KCAER [5mer-684]
20,26 RU,KKPDR [5mer-695]
21,33 RU,RKPHR [5mer-980]
22,11 RU,KNAHK [5mer-984]
23,12 RU,RYWAR [5mer-973]
24,31 RU,RKPGR [5mer-675]
25,26 RU,KKTHK [5mer-967]
26,18 RU,RFNIR [5mer-686]

row,Binding affinity (RU),Binder
1,22 RU,RAHWR [5mer-987]
2,31 RU,RCTAR [5mer-989]
3,31 RU,RPHFK [5mer-688]
4,24 RU,RPEFR [5mer-991]
5,18 RU,KDTMR [5mer-681]
6,16 RU,RETNR [5mer-976]
7,11 RU,RCEHR [5mer-696]
8,30 RU,RYDHK [5mer-978]
9,27 RU,RPHAK [5mer-668]
10,23 RU,KYMGR [5mer-678]
11,33 RU,KYMNR [5mer-970]
12,21 RU,RFTER [5mer-680]
13,18 RU,RCTAK [5mer-998]
14,14 RU,RNPGK [5mer-960]
15,22 RU,RMEIR [5mer-687]
16,15 RU,RDHWK [5mer-692]
17,31 RU,RATPR [5mer-663]
18,17 RU,KPTWR [5mer-664]
19,32 RU,RPSAK [5mer-966]
20,32 RU,RMTKK [5mer-996]
21,22 RU,KYTDR [5mer-964]
22,18 RU,RHDWR [5mer-666]
23,23 RU,RHHMK [5mer-979]
24,16 RU,KEWEK [5mer-691]
25,27 RU,KEKFR [5mer-993]
